Experimental data as given in patent US7790673 (dated 2010).

B1: wild type human cystatin C (other)
chain: SSPGKPPRLVGGPMDASVEEEGVRRALDFAVGEYNKASNDMYHSRALQVVRARKQIVAGVNYFLDVELGRTTCTKTQPNLDNCPFHDQPHLKRKAFCSFQIYAVPWQGTMTLSKSTCQDA
B2: urinary cystatin C (Calbiochem Biosciences) (other)
chain: SSPGKPPRLVGGPMDASVEEEGVRRALDFAVGEYNKASNDMYHSRALQVVRARKQIVAGVNYFLDVELGRTTCTKTQPNLDNCPFHDQPHLKRKAFCSFQIYAVPWQGTMTLSKSTCQDA
B3: variant human cystatin C (L68Q, HCHWA-I variant) (other)
chain: SSPGKPPRLVGGPMDASVEEEGVRRALDFAVGEYNKASNDMYHSRALQVVRARKQIVAGVNYFLDVEQGRTTCTKTQPNLDNCPFHDQPHLKRKAFCSFQIYAVPWQGTMTLSKSTCQDA

What was measured:
[1] = biological target: Aβ1-42 synthetic peptide (UniProt P05067 672-713); assay: ELISA
[2] = biological target: Aβ1-40 synthetic peptide (UniProt P05067 672-711); assay: ELISA
Sequence of Aβ1-40 synthetic peptide (P05067 672-711): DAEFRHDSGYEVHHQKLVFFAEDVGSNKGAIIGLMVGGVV

Sequence of Aβ1-42 synthetic peptide (P05067 672-713): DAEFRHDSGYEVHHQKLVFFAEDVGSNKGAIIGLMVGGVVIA

Binder	Kd [1] [nM]	Kd [2] [nM]
B1	10.6	16.4
B2	6.6	9
B3	5.9	9.2
